Molecular target: T1, NF-kB p50 homodimer (UniProt P19838)
T1 sequence: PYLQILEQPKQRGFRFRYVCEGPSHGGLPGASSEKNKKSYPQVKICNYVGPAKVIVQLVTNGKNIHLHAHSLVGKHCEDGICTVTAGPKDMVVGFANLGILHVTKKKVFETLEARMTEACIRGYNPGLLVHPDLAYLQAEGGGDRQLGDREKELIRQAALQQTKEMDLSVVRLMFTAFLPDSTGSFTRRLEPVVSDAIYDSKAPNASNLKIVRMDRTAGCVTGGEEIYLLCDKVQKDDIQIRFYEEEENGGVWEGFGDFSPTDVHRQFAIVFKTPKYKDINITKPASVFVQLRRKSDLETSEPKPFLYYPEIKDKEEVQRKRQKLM
Test: SPR
Conditions: EMSA: 10 mM Tris-HCl pH 7.5, 50 mM NaCl, 1 mM DTT, 1 mM EDTA, BSA (printed 10 mg/mL), 1% NP-40, 5% glycerol, poly(dI-dC), 20 C 45 min, SPR: 10 mM Tris-HCl pH 7.; for binding signal (% of unplatinated plateau): steady state

[1] = transplatin adducts, 1 per duplex, global
[2] = BBR3464 adducts, 1 per duplex, global

Sequence: CCTACCAAGTCTGAGGGGACTTTCCCAGGC (double strand) [DUPLEX-kB(SPR-BIO) transplatin]
- binding signal (% of unplatinated plateau) [1]: 88
- Kd [1]: 1.99 nM

Sequence: CCTACCAAGTCTGAGGGGACTTTCCCAGGC (double strand) [DUPLEX-kB(SPR-BIO) cisplatin]
- Kd (cisplatin adducts, 1 per duplex, global): 2.38 nM

Sequence: CCTACCAAGTCTGAGGGGACTTTCCCAGGC (double strand) [DUPLEX-kB(SPR-BIO)]
- Kd: 1.96 nM

Sequence: CCTACCAAGTCTGAGGGGACTTTCCCAGGC (double strand) [DUPLEX-kB(SPR-BIO) BBR3464]
- Kd [2]: 3.99 nM
- binding signal (% of unplatinated plateau) [2]: 21
